Measurements reported in patent US20240343800A1 (Merck KGaA, published 2024).
Each block holds one binder with its values, some of them ahead of it.

How the values were obtained:
[1] = target: T1, human ROR1 (on cells) (human, UniProt Q01973 30-937); test: flow cytometry competition on NCCIT cells: pre-treatment with titrated unlabelled scFv-Fc, then 146 nM 82H02 scFv-Fc labelled with Alexa Fluor 647-conjugated Zenon fragments
T1 construct: Entry given with its signal peptide; also called hROR1; huROR1

[2] = target: T1, human ROR1 (on cells); test: cell-based or functional assay
[3] = target: T2, human CD3 (on Jurkat T cells or human CD8+ T cells) (human, UniProt P07766 23-207; P09693 23-182; P04234 22-171; P20963 22-164); test: flow cytometry; reference: 69A02 TCE in Format 1A
T2 construct: Entries are printed with signal peptides; also called huCD3; CD3ε
Procedure: (§1) The plates were then covered with foil to avoid direct light and incubated for 60 minutes at 4° C. […] After incubating for 30 minutes at 4° C., the cells were washed twice with 200 μL of PBS by centrifugation at 500×g for 5 minutes at room temperature and resuspended into 100 μL of fixation buffer (BioLegend, Cat No: 420801). The samples were then analyzed on a flow cytometer for binding signal using FlowJo software. ROR and CD3 binding EC₅₀s (concentration vs mean fluorescence intensity (MFI)) for reference molecules and test bispecific TCEs were obtained using 4-parameter non-linear regression curve fitting in GraphPad Prism.

[4] = target: T1, human ROR1 (on cells); test: flow cytometry, MDA-MB-231 cells; reference: Ref. Frz-binding TCE
Procedure: as §1, with “After washing twice with 200 μL of phosphate buffered saline (PBS) by centrifugation at 500×g for 5 minutes at room temperature, the cells were resuspended in 100 μL of Live/Dead fixable green working buffer (ThermoFisher Scientific, Cat No: L23101; one vial of Live/Dead fixable green powder was dissolved into 50 μL of DMSO and 1 μL of dissolved Live/Dead fixable green was added to 1 mL of PBS to prepare the working buffer). After 15-minutes of incubation at room temperature, the cells were washed twice with 200 μL of PBS by centrifugation at 500×g for 5 minutes at room temperature and resuspended in […] of 10% goat serum in BD staining buffer (BD Biosciences, Cat No: 554657). […] The plates” for “The plates”

[5] = target: T1, human ROR1 (on cells); test: cell-based or functional assay; remark: listed apart in the source
[6] = target: T1, human ROR1 (on cells); test: flow cytometry, MDA-MB-231 cells
Procedure: as §1, with “After washing twice with 200 μL of phosphate buffered saline (PBS) by centrifugation at 500×g for 5 minutes at room temperature, the cells were resuspended in 100 μL of Live/Dead fixable green working buffer (ThermoFisher Scientific, Cat No: L23101; one vial of Live/Dead fixable green powder was dissolved into 50 μL of DMSO and 1 μL of dissolved Live/Dead fixable green was added to 1 mL of PBS to prepare the working buffer). After 15-minutes of incubation at room temperature, the cells were washed twice with 200 μL of PBS by centrifugation at 500×g for 5 minutes at room temperature and resuspended in […] of 10% goat serum in BD staining buffer (BD Biosciences, Cat No: 554657). […] The plates” for “The plates”

[7] = target: T1, human ROR1 (on cells); test: cell-based or functional assay; remark: listed apart in the source
[8] = target: T1, human ROR1 (on cells); test: cell-based or functional assay; remark: listed apart in the source
[9] = target: T3, cynomolgus CD3 (on cynomolgus pan-T cells) (cynomolgus, UniProt Q95LI5 22-198); test: flow cytometry, cynomolgus pan-T cells
T3 construct: whole, on cells
Procedure: as §1, with “After washing twice with 200 μL of phosphate buffered saline (PBS) by centrifugation at 500×g for 5 minutes at room temperature, the cells were resuspended in 100 μL of Live/Dead fixable green working buffer (ThermoFisher Scientific, Cat No: L23101; one vial of Live/Dead fixable green powder was dissolved into 50 μL of DMSO and 1 μL of dissolved Live/Dead fixable green was added to 1 mL of PBS to prepare the working buffer). After 15-minutes of incubation at room temperature, the cells were washed twice with 200 μL of PBS by centrifugation at 500×g for 5 minutes at room temperature and resuspended in […] of 10% goat serum in BD staining buffer (BD Biosciences, Cat No: 554657). […] The plates” for “The plates”

[10] = target: T2, human CD3 (on Jurkat T cells or human …); test: flow cytometry, Jurkat T cells
Procedure: as §1, with “After washing twice with 200 μL of phosphate buffered saline (PBS) by centrifugation at 500×g for 5 minutes at room temperature, the cells were resuspended in 100 μL of Live/Dead fixable green working buffer (ThermoFisher Scientific, Cat No: L23101; one vial of Live/Dead fixable green powder was dissolved into 50 μL of DMSO and 1 μL of dissolved Live/Dead fixable green was added to 1 mL of PBS to prepare the working buffer). After 15-minutes of incubation at room temperature, the cells were washed twice with 200 μL of PBS by centrifugation at 500×g for 5 minutes at room temperature and resuspended in […] of 10% goat serum in BD staining buffer (BD Biosciences, Cat No: 554657). […] The plates” for “The plates”

[11] = target: T1, human ROR1 (on cells); test: flow cytometry, 4T1 cells overexpressing human ROR1
[12] = target: T1, human ROR1 (on cells); test: cell-based or functional assay; remark: listed apart in the source
[13] = target: T4, mouse ROR1 (on 4T1 cells engineered to overexpress it) (mouse, UniProt Q9Z139 30-937); test: flow cytometry, 4T1 cells overexpressing mouse ROR1
T4 construct: whole, on cells; also called muROR1; mROR1

[14] = target: T1, human ROR1 (on cells); test: cell-based or functional assay; remark: listed apart in the source
[15] = target: T1, human ROR1 (on cells); test: cell-based or functional assay; remark: listed apart in the source
[16] = target: T4, mouse ROR1 (on 4T1 cells engineered to …); test: cell-based or functional assay
[17] = target: T1, human ROR1 (on cells); test: cell-based or functional assay; remark: listed apart in the source
[18] = target: T4, mouse ROR1 (on 4T1 cells engineered to …); test: cell-based or functional assay; remark: listed apart in the source

T2 sequence (P07766 23-207 limits assumed, chain 1 of 4): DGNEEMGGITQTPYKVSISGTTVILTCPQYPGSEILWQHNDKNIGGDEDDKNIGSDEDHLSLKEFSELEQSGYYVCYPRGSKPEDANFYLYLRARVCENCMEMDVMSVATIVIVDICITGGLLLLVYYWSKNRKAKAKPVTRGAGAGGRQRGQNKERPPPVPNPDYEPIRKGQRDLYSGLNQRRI
T2 sequence (P09693 23-182 limits assumed, chain 2 of 4): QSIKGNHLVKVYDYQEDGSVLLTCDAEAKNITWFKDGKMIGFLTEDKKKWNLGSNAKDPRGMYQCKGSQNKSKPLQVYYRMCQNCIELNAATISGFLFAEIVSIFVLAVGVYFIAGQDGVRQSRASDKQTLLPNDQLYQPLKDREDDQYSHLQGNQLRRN
T2 sequence (P04234 22-171 limits assumed, chain 3 of 4): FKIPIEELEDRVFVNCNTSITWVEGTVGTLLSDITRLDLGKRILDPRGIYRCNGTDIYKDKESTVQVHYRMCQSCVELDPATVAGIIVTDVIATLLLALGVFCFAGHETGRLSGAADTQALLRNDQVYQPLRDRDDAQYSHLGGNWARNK
T2 sequence (P20963 22-164 limits assumed, chain 4 of 4): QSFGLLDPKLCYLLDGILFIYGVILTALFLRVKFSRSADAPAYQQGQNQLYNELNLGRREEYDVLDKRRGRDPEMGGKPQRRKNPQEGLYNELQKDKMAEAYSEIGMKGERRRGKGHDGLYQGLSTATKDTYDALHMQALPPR
T3 sequence (Q95LI5 22-198): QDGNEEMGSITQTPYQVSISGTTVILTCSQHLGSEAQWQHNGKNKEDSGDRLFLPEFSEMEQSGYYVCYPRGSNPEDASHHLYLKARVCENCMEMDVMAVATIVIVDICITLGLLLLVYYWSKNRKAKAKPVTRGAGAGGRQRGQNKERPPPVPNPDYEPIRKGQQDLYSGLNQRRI

IC50 (read off the curve) [1]: ~2000 pM
B1: 82H02 scFv-Fc (Fc fusion)
VH: EVQLLESGGGLVQPGGSLRLSCAASGFTFTSYAMSWVRQAPGKGLEWVSTISGSGGGTYYTDSVKGRFTISRDNSKNTLYLQMNSLRAEDTAVYYCAQGSSIFDYWGQGTLVTVSS
VL: EIVLTQSPATLSLSPGERATLSCRASQSVSSYLAWYQQKPGQAPRLLIYDASNRATGIPARFSGSGSGTDFTLTISSLEPEDFAVYYCQQRSNWPPCTFGQGTRLEIK
notes: scFv-Fc format; also called unlabelled 82H02 scFv-Fc

fold lower apparent binding affinity [3]: ~4 fold | fold higher apparent binding affinity [4]: > 30 fold | TDCC EC50, PBMCs + ROR1+ MDA-MB-231 cells [5]: 48 pM | EC50 [6]: 430 pM | EC50 of IFNγ release, human CD8+ T cells + ROR1+ MDA-MB-231 [7]: 28.9 pM | IFNγ release EC50, PBMCs + ROR1+ MDA-MB-231 cells [8]: 2090 pM | EC50 [9]: 17600 pM | EC50 [10]: 35900 pM
B2: bispecific TCE 69A02 in Format 1B (bispecific antibody)
heavy 1: ETTLTQSPATLSVSPGETATLSCRASQSVSSNLAWYQQKPGQAPRLLIYGASTRATGIPATFSGSGSGTEFTLTISSLQSEDFAIYYCQQYKNWPPAFGGGTELEIKGGGGSGGGGSGGGGSGGGGSQVTLKESGPTLVKPTQTLTLTCSFSGFSITTSGVSVGWIRQPPGKALEWLALIYWDDDKRYSPSLKSRLTITRDTSKNQVVLTMTNMDPVDTATYYCAHAPRYTPGGYFDYWGQGTLVTVSSEPKSSDKTHTCPPCPAPPVAGPSVFLFPPKPKDTLMISRTPEVTCVVVDVSHEDPEVKFNWYVDGVEVHNAKTKPREEQYNSTYRVVSVLTVLHQDWLNGKEYKCAVSNKALAAPIEKTISKAKGQPFRPEVHLLPPSREEMTKNQVSLTCLARGFYPKDIAVEWESNGQPENNYKTTPSRQEPSQGTTTFAVTSKLTVDKSRWQQGNVFSCSVMHEALHNHYTQKTISLSPGKGGGGSGGGGSGGGGSGGGGSEVQLVESGGGLVQPGGSLRLSCAASGFTFNTYAMNWVRQAPGKGLEWVARIRSKYNNYATYYADSVKDRFTISRDDSKNTLYLQMNSLRAEDTAVYYCVRHGNFGNSYVSWFAYWGQGTMVTVSSASTKGPSVFPLAPSSKSTSGGTAALGCLVKDYFPEPVTVSWNSGALTSGVHTFPAVLQSSGLYSLSSVVTVPSSSLGTQTYICNVNHKPSNTKVDKKVEPKSS
heavy 2: ETTLTQSPATLSVSPGETATLSCRASQSVSSNLAWYQQKPGQAPRLLIYGASTRATGIPATFSGSGSGTEFTLTISSLQSEDFAIYYCQQYKNWPPAFGGGTELEIKGGGGSGGGGSGGGGSGGGGSQVTLKESGPTLVKPTQTLTLTCSFSGFSITTSGVSVGWIRQPPGKALEWLALIYWDDDKRYSPSLKSRLTITRDTSKNQVVLTMTNMDPVDTATYYCAHAPRYTPGGYFDYWGQGTLVTVSSEPKSSDKTHTCPPCPAPPVAGPSVFLFPPKPKDTLMISRTPEVTCVVVDVSHEDPEVKFNWYVDGVEVHNAKTKPREEQYNSTYRVVSVLTVLHQDWLNGKEYKCAVSNKALAAPIEKTISKAKGQPREPQVYTLPPPSEELALNELVTLTCLVKGFYPSDIAVEWLQGSQELPREKYLTWAPVLDSDGSFFLYSILRVAAEDWKKGDTFSCSVMHEALHNRFTQKSLDRSPGK
light: QAVVTQEPSLTVSPGGTVTLTCRSSTGAVTTSNYANWVQQKPGQAPRGLIGGTNKRAPGTPARFSGSLLGGKAALTLSGVQPEDEAEYYCALWYSNLWVFGGGTKLTVLGQPKAAPSVTLFPPSSEELQANKATLVCLISDFYPGAVTVAWKADSSPVKAGVETTTPSKQSNNKYAASSYLSLTPEQWKSHRSYSCQVTHEGSTVEKTVAPTECS
notes: also called 69A02 TCE 1B; 1B_69A02x1F3.5 (1B)
EC50 of target cell killing (TDCC), human CD8+ T cells + ROR1+ MDA-MB-231 [2]: 35.6 pM

TDCC EC50, PBMCs + ROR1+ MDA-MB-231 cells [5]: 76.6 pM | EC50 [11]: 700 pM | TDCC EC50, cynomolgus CD8+ T cells + ROR1+ MDA-MB-231 [12]: 54.8 pM | TDCC EC50, human CD8+ T cells + ROR1+ MDA-MB-231 [12]: 23.7 pM | EC50 [6]: 2230 pM | EC50 [13]: 2010 pM | EC50 of IFNγ release, human CD8+ T cells + ROR1+ MDA-MB-231 [7]: 88.9 pM | IFNγ release EC50, cynomolgus CD8+ T cells + ROR1+ MDA-MB-231 [14]: 191 pM | IFNγ release EC50, human CD8+ T cells + ROR1+ MDA-MB-231 [14]: 104 pM | IFNγ release EC50, hCD3 KI splenocytes: hROR1+ 4T1 cells [15]: > 300 pM | IFNγ release EC50, hCD3 KI splenocytes: mROR1+ 4T1 cells [16]: 140 pM | IFNγ release EC50, PBMCs + ROR1+ MDA-MB-231 cells [8]: 7120 pM | TDCC EC50, hCD3 KI splenocytes: hROR1+ 4T1 cells [17]: 185 pM | TDCC EC50, hCD3 KI splenocytes: mROR1+ 4T1 cells [18]: 21.5 pM | EC50 [9]: 34900 pM | EC50 [10]: 67300 pM
B3: bispecific TCE 82H02 in Format 1B (bispecific antibody)
chain 1: EIVLTQSPATLSLSPGERATLSCRASQSVSSYLAWYQQKPGQAPRLLIYDASNRATGIPARFSGSGSGTDFTLTISSLEPEDFAVYYCQQRSNWPPCTFGQGTRLEIKGGGGSGGGGSGGGGSGGGGSEVQLLESGGGLVQPGGSLRLSCAASGFTFTSYAMSWVRQAPGKGLEWVSTISGSGGGTYYTDSVKGRFTISRDNSKNTLYLQMNSLRAEDTAVYYCAQGSSIFDYWGQGTLVTVSSEPKSSDKTHTCPPCPAPEAAGGPSVFLFPPKPKDTLMISRTPEVTCVVVDVSHEDPEVKFNWYVDGVEVHNAKTKPREEQYNSTYRVVSVLTVLHQDWLNGKEYKCKVSNKALGAPIEKTISKAKGQPFRPEVHLLPPSREEMTKNQVSLTCLARGFYPKDIAVEWESNGQPENNYKTTPSRQEPSQGTTTFAVTSKLTVDKSRWQQGNVFSCSVMHEALHNHYTQKTISLSPGKGGGGSGGGGSGGGGSGGGGSEVQLVESGGGLVQPGGSLRLSCAASGFTFNTYAMNWVRQAPGKGLEWVARIRSKYNNYATYYADSVKDRFTISRDDSKNTLYLQMNSLRAEDTAVYYCVRHGNFGNSYVSWFAYWGQGTMVTVSSASTKGPSVFPLAPSSKSTSGGTAALGCLVKDYFPEPVTVSWNSGALTSGVHTFPAVLQSSGLYSLSSVVTVPSSSLGTQTYICNVNHKPSNTKVDKKVEPKSC
chain 2: EIVLTQSPATLSLSPGERATLSCRASQSVSSYLAWYQQKPGQAPRLLIYDASNRATGIPARFSGSGSGTDFTLTISSLEPEDFAVYYCQQRSNWPPCTFGQGTRLEIKGGGGSGGGGSGGGGSGGGGSEVQLLESGGGLVQPGGSLRLSCAASGFTFTSYAMSWVRQAPGKGLEWVSTISGSGGGTYYTDSVKGRFTISRDNSKNTLYLQMNSLRAEDTAVYYCAQGSSIFDYWGQGTLVTVSSEPKSSDKTHTCPPCPAPEAAGGPSVFLFPPKPKDTLMISRTPEVTCVVVDVSHEDPEVKFNWYVDGVEVHNAKTKPREEQYNSTYRVVSVLTVLHQDWLNGKEYKCKVSNKALGAPIEKTISKAKGQPREPQVYTLPPPSEELALNELVTLTCLVKGFYPSDIAVEWLQGSQELPREKYLTWAPVLDSDGSFFLYSILRVAAEDWKKGDTFSCSVMHEALHNHYTQKSLDRSPGK
chain 3: B2 light
EC50 of target cell killing (TDCC), human CD8+ T cells + ROR1+ MDA-MB-231 [2]: 58.1 pM
